{"source": "paper PMC9319256", "about": "“Human Enzyme PADI4 Binds to the Nuclear Carrier Importin α3” (Cells, 2022)", "key": {"[1]": {"molecular_target": "T1, Impα3 (Homo sapiens, UniProt O00629)", "T1 construct": "made in house", "T1 sequence (O00629 1-521)": "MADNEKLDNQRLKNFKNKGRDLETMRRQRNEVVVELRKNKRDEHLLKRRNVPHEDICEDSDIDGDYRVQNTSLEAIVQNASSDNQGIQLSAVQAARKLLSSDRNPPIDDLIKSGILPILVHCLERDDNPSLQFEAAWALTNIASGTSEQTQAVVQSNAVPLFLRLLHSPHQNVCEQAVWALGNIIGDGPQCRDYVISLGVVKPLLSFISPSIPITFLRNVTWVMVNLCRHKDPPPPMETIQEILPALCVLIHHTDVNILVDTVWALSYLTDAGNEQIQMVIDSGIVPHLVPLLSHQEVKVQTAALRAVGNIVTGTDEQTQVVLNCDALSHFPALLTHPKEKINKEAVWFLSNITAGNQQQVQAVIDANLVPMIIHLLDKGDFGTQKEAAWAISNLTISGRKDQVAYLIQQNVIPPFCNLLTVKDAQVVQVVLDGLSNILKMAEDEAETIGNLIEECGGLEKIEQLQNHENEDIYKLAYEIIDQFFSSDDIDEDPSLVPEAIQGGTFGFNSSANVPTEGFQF", "test": "Fluorescence titration of PADI4 with Impα3", "type": "binding", "settings": "fluorescence at 330 nm; 3 µM PADI4, 0–25 µM importin; 20 mM Tris pH 7.5, 5 mM TCEP, 150 mM NaCl, 5% glycerol, 25 °C; titration repeated three times; ± fitting error", "experimental": "(§1) For the titration between either Impα3 or ΔImpα3 and intact PADI4, increasing amounts of the corresponding importin species, in the concentration range 0–25 µM, were added to a solution with a fixed concentration of intact PADI4 (3 µM). Experiments were carried out in 20 mM Tris buffer (pH 7.5), 5 mM TCEP, 150 mM NaCl, and 5% glycerol at 25 °C (the storage buffer of PADI4). The experimental setup was the same as in the steady-state fluorescence experiments. Blank corrections containing the amount of each importin species were subtracted. Inner-filter effects were corrected. Each titration (Impα3 with PADI4 or ΔImpα3 with PADI4) was repeated three times, using new samples. In the three cases, the variations in the results were lower than 10%.\n(§2) Handling and preparation of samples were the same described in Section 2.4.1. The dissociation constant of the corresponding complex, Kd, was calculated by fitting the binding isotherm to the general binding model, explicitly considering ligand depletion. […] Fitting to Equation (1) was carried out using KaleidaGraph (Synergy software, Reading, PA, USA)."}, "[2]": {"molecular_target": "ΔImpα3", "test": "Fluorescence titration of PADI4 with ΔImpα3", "type": "binding, human", "settings": "fluorescence at 330 nm; 3 µM PADI4, 0–25 µM importin; 20 mM Tris pH 7.5, 5 mM TCEP, 150 mM NaCl, 5% glycerol, 25 °C; titration repeated three times; ± fitting error", "experimental": "as §1, §2"}, "[3]": {"molecular_target": "T1, Impα3", "test": "Steady-state fluorescence, complex versus addition spectrum, Impα3", "type": "binding", "settings": "20 µM PADI4 or peptide, 2 µM Impα3; 50 mM sodium phosphate pH 7.0, 25 °C; excitation 280 or 295 nm; triplicates", "experimental": "Spectra were collected on a Cary Varian spectrofluorometer (Agilent, Santa Clara, CA, USA), interfaced with a Peltier unit. Following the standard protocols used in our laboratories, the samples were prepared the day before and left overnight at 5 °C; before experiments, samples were left for 1 h at 25 °C, where experiments were acquired. A 1 cm pathlength quartz cell (Hellma, Kruibeke, Belgium) was used. The concentration of PADI4 or NLS1/2-PADI4 peptides was 20 µM, and that of each importin species was 2 µM. Samples containing the corresponding isolated peptides, the isolated PADI4, the isolated corresponding importin species, and the corresponding mixtures (at the concentrations indicated above) were prepared. Experiments were performed with samples in 50 mM sodium phosphate buffer, pH 7.0. Fluorescence experiments were repeated in triplicates with newly prepared samples. Variations of results among the experiments were lower than 5%.\nPolypeptide samples were excited either at 280 or 295 nm (although NLS2-PADI4 has only a single […]). The other experimental parameters used in the experiments have been described elsewhere. Appropriate blank corrections were made in all spectra."}, "[4]": {"molecular_target": "T1, Impα3", "test": "Far-UV CD, complex versus addition spectrum, Impα3", "type": "binding", "settings": "25 °C; average of six scans", "excerpt": "Far-UV CD spectra were collected on a Jasco J810 spectropolarimeter (Jasco, Tokyo, Japan) interfaced with a Peltier unit. The instrument was periodically calibrated with (+)-10-camphorsulfonic acid. A cell of path length 0.1 cm was used (Hellma, Kruibeke, Belgium). All spectra were corrected by subtracting the corresponding baseline. Concentration of each polypeptide (importin species and either NLS1/2-PADI4 or PADI4) and the buffers were the same used in the fluorescence experiments (Section 2.4).\nIsothermal wavelength spectra of each isolated macromolecule and that of the complex were acquired as an average of six scans, at a scan speed of 50 nm/min, with a response time of 2 s and a bandwidth of 1 nm. Handling and preparation of samples were the same described in Section 2.4.1."}, "[5]": {"molecular_target": "T1, Impα3", "test": "Isothermal titration calorimetry (ITC), Impα3", "type": "binding", "experimental": "(§3) Calorimetric titrations for testing the interaction of PADI4, as well as for the interaction of NLS1/2-PADI4 peptides, with both importins, Impα3 and ΔImpα3, were carried out in an Auto-iTC200 automated high-sensitivity calorimeter (MicroCal, Malvern-Panalytical, Malvern, UK). Experiments were performed in 20 mM Tris buffer (pH 7.5), 5 mM TCEP, 150 mM NaCl, and 5% glycerol at 25 °C. PADI4 or the peptide solution (100 μM) in the injection syringe was titrated into the importin solution (10 μM) in the calorimetric cell. The remaining experimental and processing details have been described previously. Due to the presence of glycerol in solution, background injection (included as an adjustable parameter in data fitting) was rather large. The data analysis was conducted in Origin 7.0 (OriginLab, Northampton, MA, USA) with user-defined fitting functions."}, "[6]": {"test_system": "ΔImpα3", "test": "Isothermal titration calorimetry (ITC), ΔImpα3", "type": "binding, human", "experimental": "as §3"}, "[7]": {"settings": "Impα3, pH 7.5, 25 °C, 95% confidence interval in parentheses"}}, "data": [{"substance": "PADI4: human peptidyl-arginine deiminase 4, intact protein, purified as previously described", "values": [{"measurement": "Kd", "setting": "[1]", "result": "3.9 ± 0.8", "unit": "µM"}, {"measurement": "Kd", "setting": "[2]", "result": "6 ± 1", "unit": "µM"}, {"measurement": "change in fluorescence spectrum of complex versus addition spectrum", "setting": "[3]", "result": "a variation in the fluorescence intensity"}, {"measurement": "change in far-UV CD spectrum of complex versus addition spectrum", "setting": "[4]", "result": "the addition spectrum was not very different from that of the complex"}, {"measurement": "ΔG", "setting": "[5]; Impα3, pH 7.5, 25 °C", "result": -7.3, "unit": "kcal/mol"}, {"measurement": "n (binding stoichiometry or percentage of binding-competent protein)", "setting": "[5]; [7]", "result": "0.97 (0.94, 1.00)"}, {"measurement": "ΔH (binding enthalpy)", "setting": "[5]; [7]", "result": "−65.5 (−72.0, −60.5) kcal/mol"}, {"measurement": "Ka (association constant)", "setting": "[5]; PADI4 or peptide (100 μM) titrated into Impα3 (10 μM), 20 mM Tris pH 7.5, 5 mM TCEP, 150 mM NaCl, 5% glycerol, 25 °C, 95% confidence interval in parentheses", "result": "2.1 (1.7, 2.5) 10^5 M^−1"}, {"measurement": "Kd", "setting": "[5]; PADI4 or peptide (100 μM) titrated into Impα3 (10 μM), 20 mM Tris pH 7.5, 5 mM TCEP, 150 mM NaCl, 5% glycerol, 25 °C, 95% confidence interval in parentheses, read-out: Kd (dissociation constant)", "result": 4.8, "unit": "µM"}, {"measurement": "Ka (association constant)", "setting": "[6]; PADI4 or peptide (100 μM) titrated into ΔImpα3 (10 μM), 20 mM Tris pH 7.5, 5 mM TCEP, 150 mM NaCl, 5% glycerol, 25 °C, 95% confidence interval in parentheses", "result": "7.8 (7.3, 8.5) 10^5 M^−1"}, {"measurement": "Kd", "setting": "[6]; PADI4 or peptide (100 μM) titrated into ΔImpα3 (10 μM), 20 mM Tris pH 7.5, 5 mM TCEP, 150 mM NaCl, 5% glycerol, 25 °C, 95% confidence interval in parentheses, read-out: Kd (dissociation constant)", "result": 1.3, "unit": "µM"}, {"measurement": "-TΔS", "setting": "[6]; ΔImpα3, pH 7.5, 25 °C", "result": -30.4, "unit": "kcal/mol"}, {"measurement": "ΔG", "setting": "[6]; ΔImpα3, pH 7.5, 25 °C", "result": -8.0, "unit": "kcal/mol"}]}]}
